B1: fusion protein H6FXtripb-scFv(CEA6) (scFv)
chain: MGSHHHHHHGSIQGRSPGTEPPTQKPKKIVNAKKDVVNTKMFEELKSRLDTLAQEVALLKEQQALQTGSQVQLQQSGAEVKKPGSSVKVSCKASGGTFSNSPINWLRQAPGQGLEWMGSIIPSFGTANYAQKFQGRLTITADESTSTAYMELSSLRSEDTAVYYCAGRSHNYELYYYYMDVWGQGTMVTVSSGGGGSGGGGSGGGGSDIQMTQSPSTLSASIGDRVTITCRASEGIYHWLAWYQQKPGKAPKLLIYKASSLASGAPSRFSGSGSGTDFTLTISSLQPDDFATYYCQQYSNYPLTFGGGTKLEIKRAAAEQKLISEEDLNGA
notes: About 38 kDa per monomer; Only its self-association was tested
B2: recombinant full length tetranectin (TN123) (other)
chain: GEPPTQKPKKIVNAKKDVVNTKMFEELKSRLDTLAQEVALLKEQQALQTVCLKGTKVHMKCFLAFTQTKTFHEASEDCISRGGTLSTPQTGSENDALYEYLRQSVGNEAEIWLGLNDMAAEGTWVDMTGARIAYKNWETEITAQPDGGKTENCAVLSGAANGKWFDKRCRDQLPYICQFGIV
notes: Found as a trimer in solution; also called rTN123
B3: tetranectin fusion protein CIIH6FXTN123 (other)
chain: MVRANKRNEALRIESALLNKIAMLGTEKTAEGGSHHHHHHGSIEGRGEPPTQKPKKIVNAKKDVVNTKMFEELKSRLDTLAQEVALLKEQQALQTVCLKGTKVHMKCFLAFTQTKTFHEASEDCISRGGTLSTPQTGSENDALYEYLRQSVGNEAEIWLGLNDMAAEGTWVDMTGARIAYKNWETEITAQPDGGKTENCAVLSGAANGKWFDKRCRDQLPYICQFGIV
notes: Uncleaved fusion protein; Forms homo-trimers, and forms hetero-trimers with TN123; also called H6CIIFXTN123
B4: recombinant tetranectin derivative TN3 (other)
chain: ALQTVCLKGTKVHMKCFLAFTQTKTFHEASEDCISRGGTLSTPQTGSENDALYEYLRQSVGNEAEIWLGLNDMAAEGTWVDMTGARIAYKNWETEITAQPDGGKTENCAVLSGAANGKWFDKRCRDQLPYICQFGIV
notes: Appeared monomeric
B5: fusion protein H6FXTN12 (other)
chain: MGSHHHHHHGSIEGRGEPPTQKPKKIVNAKKDVVNTKMFEELKSRLDTLAQEVALLKEQQALQTV
notes: Uncleaved fusion protein; Formed homo-trimers upon cross-linking; also called H6-rTN12
B6: recombinant tetranectin derivative TN23 (other)
chain: VVNTKMFEELKSRLDTLAQEVALLKEQQALQTVCLKGTKVHMKCFLAFTQTKTFHEASEDCISRGGTLSTPQTGSENDALYEYLRQSVGNEAEIWLGLNDMAAEGTWVDMTGARIAYKNWETEITAQPDGGKTENCAVLSGAANGKWFDKRCRDQLPYICQFGIV
notes: It is a trimer by gel filtration but appeared monomeric after DMSI cross-linking

Data set [1] concerns the molecule itself. As to the kind of experiment: DMSI cross-linking with rising DMSI at room temperature, SDS-PAGE; self-association. As to the method: After completion of the refolding procedure each column was washed with 300 ml buffer containing 0.5 M NaCl and 50 mM Tris-HCl pH 8 to wash away glutathione. The refolded fraction of each protein was then eluted from the NTA-agarose matrix by addition of 20 mM EDTA to the elution buffer. After addition of solid urea to achieve a final concentration of about 8 M to each protein sample and dilution or dialysis to reduce NaCl concentrations to below 5 mM, final purification of each correctly folded fusion protein product was then accomplished by ion exchange chromatography (S-Sepharose, Pharmacia, 1,6 (i.d.) by 90 centimeter column in a buffer containing 8 M urea, 5 mM Tris-HCl (from 1 M stock solution at pH 8) and 25 mM sodium acetate (from 1 M stock solution at pH 5), eluted at 2 ml/min). After dialysis against aqueous buffers (e.g. phosphate buffered saline) each pure and correctly refolded fusion protein was recovered in yields of 2-6 mg per litre of culture grown. […] Reactions were quenched by addition of 5 μl 3M Tris-HCl pH 9 and the samples analyzed by SDS-PAGE under reducing conditions (FIG. 21). Like tetranectin, the H6FXtripb-scFV-(CEA6) fusion protein, of approximately 38 kDa, is hereby shown to be a trimer in solution.

Data set [2] concerns the molecule itself. As to the kind of experiment: analytical gel filtration on Superose 12; self-association. As to the method:
(§1) FIG. 9: Gel filtration analysis of TN123, TN23, and TN3 Analytical gel filtration of the recombinant tetranectin derivatives TN123, TN23, and TN3 were performed on a Superose 12 HR 10/30 column (Pharmacia, Sweden) with a total volume of 25 ml in 100 mM NaCl and 50 mM Tris-HCl pH 8 and a flow rate of 0.2 ml/min. Vertical bars at peak maxima identify elution profiles for each of the three proteins.
(§2) Analytical gelfiltration of the recombinant tetranectin derivatives TN123, TN3, and TN23 (FIG. 9) were performed on a Superose 12 HR 10/30 column (Pharmacia, Sweden) with a total volume of 25 ml in 100 mM NaCl and 50 mM Tris-HCl pH 8 and a flow rate of 0.2 ml/min. The Kₐᵥ value is defined by, Kₐᵥ=(Ve−Vo)/(Vc−Vo).
On the technique in general: SEC sorts molecules by how far they enter the pores of the column.

Data set [3] concerns the molecule itself. Briefly: DMSI cross-linking and SDS-PAGE; self-association. As to the method:
(§3) The recombinant tetranectin derivatives TN123, TN3, and TN23, together with the fusion proteins CIIH6FXTN123 and H6FXTN12 or mixtures of these derivatives at 1 mg/ml concentrations in cross-linking buffer (0.1 M Sodium borate, pH 9.1) were incubated with dimethylsuberimidate (DMSI, Sigma). 10 μl aliquots of protein solution were incubated with 1 μl aliquots of DMSI stock solution (20 mg/ml in cross-linking buffer) for 30 minutes at 25° C. before addition of 2 μl quenching buffer (3 M Tris-HCl, pH 9). Subunit exchange between preformed homo-oligomers was induced by subjecting protein mixtures to heat shock treatment. Five μl aliquots of each protein solution (1 mg/ml stocks) were mixed at 0° C. in standard polypropylene microcentrifuge tubes, transferred to a water bath at 70° C. for the time spans indicated, and then further incubated for 15 minutes at 25° C. before reaction with DMSI.
Subunit exchange could be induced by incubating the protein mixture at 70° C. for 15 seconds or longer before cooling to room temperature and addition of DMSI. […] It should be noted, that molecular weight markers have only been included on the SDS-PAGE gels for crude calibration and orientation of the gels.

For data set [4], the target named is B2. As to the kind of experiment: DMSI cross-linking and SDS-PAGE after subunit exchange at 70 C for 15 s or longer; no exchange after 16 h at room temperature. As to the method:
FIG. 10: Cross-linking analysis of TN123 and CIIH6FXTN123. Samples of TN123, CIIH6FXTN123 and mixtures of both were incubated with DMSI and analyzed by SDS-PAGE (12% gel). Before addition of DMSI, protein mixtures were subjected to subunit exchange by incubation at 70° C. for varying length of time. Protein marker of 94, 68, 43 and 30 kDa, top to bottom (lane M). CIIH6FXTN123 fusion protein (lane 1). TN123 (lane 2). DMSI treated CIIH6FXTN123 (lanes 3 and 6). DMSI-treated TN123 (lane 4). Identical samples of DMSI treated mixtures of CIIH6FXTN123 and TN123 without heat exposure (lanes 5 and 7) and heat treated for 2.5 sec, 15 sec, 2.5 min. and 10 min., respectively, before treatment with DMSI (lanes 8-11).
as §3, with “Five μl aliquots of each protein solution (1 mg/ml stocks) were mixed at 0° C. in standard polypropylene microcentrifuge tubes, transferred to a water bath at 70° C. for the time spans indicated, and then further incubated for 15 minutes at 25° C. before reaction with DMSI.” left out

Data set [5] addresses B2. Briefly: DMSI cross-linking of the mixture with and without heat treatment at 70 C, SDS-PAGE. As to the method: as §3
Data set [6] concerns the molecule itself. Briefly: analytical gel filtration on Superose 12. As to the method: as §1, §2
For data set [7], the target named is B2. Briefly: DMSI cross-linking and SDS-PAGE after heat treatment at 70 C. On the procedure: as §3

As for B1, the binding result in data set [1] is given as “binds”.
On to B2, for which, in data set [2], the binding result was “binds”.
For B3, the binding result in data set [3] and in data set [4] was “binds” in each case.
For the molecule B4, the binding result in data set [5] and in data set [6] was “no binding” throughout.
Take B5: the binding result in data set [3] and in data set [7] was “binds” throughout.
On to B6, for which, in data set [2], the binding result was “binds”.

The values above are taken from US20070154901A1 (ANAPHORE, published 2007).
